Laboratory results from PMC12493188.

Experiments:
[1] = target: reaction centre-light harvesting 1 (RC-LH1) core complex, monomer, from Rba. sphaeroides strain DX13 (Rhodobacter sphaeroides 2.4.1) (UniProt P0C0Y8)
[2] = target: reaction centre-light harvesting 1 (RC-LH1) core complex, monomer, from Rba. sphaeroides strain DX13 (Rhodobacter sphaeroides 2.4.1) (UniProt P0C0Y8); remark: listed apart in the source

cyt c oxidation rate by RC-LH1 against NaCl (series up to 500 mM; observed optimum 50 mM): activity lost at 500 mM NaCl (% of activity lost) [1] | cyt c 2 oxidation rate by RC-LH1 against NaCl (series up to 500 mM; optimum 100 mM in Table 1): activity left at 500 mM NaCl, percent of the maximum (% of maximum activity) [1] | K M of redox carrier oxidation by RC-LH1, steady-state turnover (0.125 µM RC-LH1, 50 µM UQ-2, 50 mM Tris-HCl pH 7.5, 100 mM NaCl, 0.03% β-DDM, 25°C) [2] [µM] | V max of redox carrier oxidation by RC-LH1, steady-state turnover (0.125 µM RC-LH1, 50 µM UQ-2, 50 mM Tris-HCl pH 7.5, 100 mM NaCl, 0.03% β-DDM, 25°C) [2] [e^−/RC/s] | cyt c 6 oxidation rate by RC-LH1 against NaCl (0-800 mM): optimum [NaCl] [2] [mM] | iso c 2 oxidation rate by RC-LH1 against NaCl (series up to 500 mM; optimum 50 mM in Table 1): activity left at 500 mM NaCl, percent of the maximum (% of maximum activity) [1] | Pc oxidation rate by RC-LH1 against NaCl (0-800 mM): optimum [NaCl] [2] [mM] | Substance
90 |  |  |  |  |  |  | cytochrome c (cyt c) from horse heart mitochondria (from UniProt P00004 1-105) (natural protein)
 | 40 | 6.8 | 293 |  |  |  | cytochrome c 2 (cyt c 2) of Rba. sphaeroides (from UniProt P0C0X8 1-124) (natural protein)
 |  | 66.3 | 37.8 | 700 |  |  | cytochrome c 6 (cyt c 6) of Synechocystis sp. PCC 6803 (from UniProt P46445 36-120) (natural protein)
 |  | 5.88 | 230 |  | 20 |  | isocytochrome c 2 (iso c 2) of Rba. sphaeroides (natural protein)
 |  | 209 | 7.92 |  |  | 700 | plastocyanin (Pc) of Synechocystis sp. PCC 6803, C-terminally StrepII-tagged (from UniProt P21697 29-126) (natural protein)
